For one data set, the target named is T1, Hop1 (Saccharomyces cerevisiae, UniProt P20050).
T1 construct: full-length His6-tagged WT Hop1
T1 sequence (P20050 1-605): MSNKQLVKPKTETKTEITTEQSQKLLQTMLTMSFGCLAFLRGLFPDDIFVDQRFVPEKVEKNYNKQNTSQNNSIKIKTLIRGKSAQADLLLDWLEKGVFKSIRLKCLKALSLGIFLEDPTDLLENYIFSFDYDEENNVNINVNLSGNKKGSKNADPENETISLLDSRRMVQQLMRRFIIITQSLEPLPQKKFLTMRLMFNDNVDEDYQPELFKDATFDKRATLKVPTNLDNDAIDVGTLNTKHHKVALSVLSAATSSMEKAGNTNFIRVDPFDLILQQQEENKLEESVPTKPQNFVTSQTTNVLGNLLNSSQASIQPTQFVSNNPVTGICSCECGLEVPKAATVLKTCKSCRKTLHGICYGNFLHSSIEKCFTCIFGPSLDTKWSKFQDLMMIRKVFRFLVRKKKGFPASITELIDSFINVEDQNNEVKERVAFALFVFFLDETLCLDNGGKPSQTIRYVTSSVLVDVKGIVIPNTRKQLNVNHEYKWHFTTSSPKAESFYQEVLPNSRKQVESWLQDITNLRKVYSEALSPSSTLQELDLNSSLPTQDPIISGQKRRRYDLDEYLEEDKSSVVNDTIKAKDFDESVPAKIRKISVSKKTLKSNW
Description: ITC (also ATP-agarose chromatography, UV crosslinking/filter binding, ATPase kinetics with Km […]).

The target of the next data set is T2, Hop1 WT (Saccharomyces cerevisiae, UniProt P20050 1-605).
T2 sequence: T1 sequence (P20050 1-605)
Description: MST; 25 nM HJ; EMSA: 25 mM HEPES pH 7.5, 0.5 nM 32P-HJ, 37 C 15 min, 8% PAGE in TBE (25 mM Tris base pH 8.0, 25 mM boric acid, 0.5 mM EDTA) at 4 C; MST: 25 nM 6-FAM HJ, buffer not in material. The following applies: protein: recombinant; tags: N-terminal His6 (pET28a); label: 5'-6FAM on HJ02; four-way junction of 4 strands. Background: In EMSA bound probe runs differently from free probe, usually more slowly.

The next data set concerns the target T3, Hop1 HORMA domain (S. cerevisiae, UniProt P20050 20-250, Red-tris-NTA label (in the MST only)).
T3 construct: Hop1, S. cerevisiae, N-terminal HORMA domain; Amplified from pET28a-HOP1 and cloned NdeI/XhoI into pET14b; also called N-terminal HORMA domain; N-terminal region of Hop1; source: E. coli Rosetta (DE3), pET-14b, purified (Ni2+-NTA); not shown: His tag (inferred: Ni2+-NTA purification); Red-tris-NTA labelling; anti-His detection
T3 sequence (looked up): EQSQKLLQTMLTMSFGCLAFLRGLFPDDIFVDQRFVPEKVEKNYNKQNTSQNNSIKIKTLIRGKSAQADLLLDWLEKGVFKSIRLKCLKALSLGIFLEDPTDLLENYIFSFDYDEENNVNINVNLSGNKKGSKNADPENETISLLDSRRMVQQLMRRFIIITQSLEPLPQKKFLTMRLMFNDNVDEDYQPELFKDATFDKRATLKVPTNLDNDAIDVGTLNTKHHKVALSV
Nature of the data set: MST; Red-tris-NTA labelled Hop1 HORMA domain fixed at 20 nM, Hop1-CTD titrated 0.00031 to 10 uM; incubated at 37°C for 15 min; Pico-RED, 5% excitation power; Hill model; apparent Kd. The following applies: both partners purified.

`Nc1ncnc2c1ncn2C1OC(COP(=O)(O)OP(=O)(O)OP(=O)(O)O)C(O)C1O` (stereo not drawn) [ATP] yielded a Kd on Hop1 of approximately 32900 nM.

B1: Holliday junction (HJ), 6-FAM (structured_DNA)
DNA 1: GACGCTGCCGAATTCTACCAGTGCCTTGCTAGGACATCTTTGCCCACCTGCCGGTTCACCC
DNA 2: TGGGTGAACCTGCAGGTGGGCAAAGATGTCCTAGCAATGTAATCGTCAAAGCTTTATGCCGTT
DNA 3: CAACGGCATAAAGCTTGACGATTACATTGCTAGGACATGCTGTCTAGAGGATCCGACTATCGA
DNA 4: ATCGATAGTCGGATCCTCTAGACAGCATGTCCTAGCAAGGCACTGGTAGAATTCGGCAGCGT
As for B1, the Kd in the data set with Hop1 WT was found to be 206 nM.

B2: Hop1-CTD (domain or fragment)
chain: LSAATSSMEKAGNTNFIRVDPFDLILQQQEENKLEESVPTKPQNFVTSQTTNVLGNLLNSSQASIQPTQFVSNNPVTGICSCECGLEVPKAATVLKTCKSCRKTLHGICYGNFLHSSIEKCFTCIFGPSLDTKWSKFQDLMMIRKVFRFLVRKKKGFPASITELIDSFINVEDQNNEVKERVAFALFVFFLDETLCLDNGGKPSQTIRYVTSSVLVDVKGIVIPNTRKQLNVNHEYKWHFTTSSPKAESFYQEVLPNSRKQVESWLQDITNLRKVYSEALSPSSTLQELDLNSSLPTQDPIISGQKRRRYDLDEYLEEDKSSVVNDTIKAKDFDESVPAKIRKISVSKKTLKSNW
For B2, the Kd with Hop1 HORMA domain was 1900 ± 500 nM.

Source of the values: PMC11797056, “The ATPase activity of yeast chromosome axis protein Hop1 affects the frequency of meiotic crossovers” (Nucleic Acids Research, 2024).
